According to paper PMC6429369, “Characterization of Stackebrandtia nassauensis GH 20 Beta-Hexosaminidase, a Versatile Biocatalyst for Chitobiose Degradation” (International Journal of Molecular Sciences, 2019):

What was measured:
purified protein [1] = substrate: CC(=O)N[C@H]1[C@H](Oc2ccc([N+](=O)[O-])cc2)O[C@H](CO)[C@@H](O)[C@@H]1O; experiment: purified protein; type: biochemical, Stackebrandtia nassauensis; conditions: 50 mM phosphate-citric acid buffer pH 6.0, 37 °C, substrate 0.01-10 mM
purified protein [2] = substrate: CC(=O)N[C@H]1[C@H](Oc2ccc([N+](=O)[O-])cc2)O[C@H](CO)[C@H](O)[C@@H]1O; experiment: purified protein; type: biochemical, Stackebrandtia nassauensis; conditions: 50 mM phosphate-citric acid buffer pH 6.0, 37 °C, substrate 0.01-10 mM

B1: SnHex (Stackebrandtia nassauensis GH20 beta-N-acetylhexosaminidase) (Stackebrandtia nassauensis DSM 44728) (protein)
chain: VADPSHAKAATPSTIPALGEWTAASGTYTYSESSRLVVDPDHADELTDEAQTAAADLAALTGTEPEVVTGEPETGDVSLALGGGEPLGAEGYSLDVGDTFAITANADAGAFYGTRTLLQLVKQDKQIPAGTATDVPKKPERGLMVDVGRKYMSVEWLKKHIKDLSYAKLNYFHLHLSDTFGFRLESETHPEVTSEDHYTKAEIRELVDLAAKYHVTLVPEIDVPGHVNAMLAQHPELQLEDQSGNKDPYFLDLSNPDAYTLVEDLIKEYLPLFPGPYWHIGADEYVGDYGKYPQLEAYAKEHYGPDAVGKDAYYGFINWANEIVRDGGKTTRMWNDGIKEGDGTIAPEANIVVDYWSTHGIDPQKLLDRGHTVMNASWTPTYYVLGGTDIDRRWLYEDWNPDLFEKTLTIDDPKRNLGSKIHVWCDHPDAQTEDQITEGIRLPLRGLAQQTWGSPKLVEGYDDFVAIDDAIGRAPGFSSL
notes: full ORF, 1578 bp, 526 residues, about 58 kDa; pET-30a in E. coli BL21(DE3) lacZ-; Ni-NTA and anion exchange; N-terminal His/thrombin/S-tag/enterokinase by cloning (text elsewhere says C-terminal His6), tags kept; primers translate to N-term VADPSH (after ATG), C-term GFSSL-stop
Km (purified protein [1]): 2470 ± 50 µM | Vmax (purified protein [1]): 57 µM/min/mg | kcat (purified protein [1]): 0.917 ± 0.0615 s⁻¹ | kcat/Km (purified protein [1]): 372 ± 33.3 M⁻¹ s⁻¹ | Km (purified protein [2]): 3290 ± 320 µM | Vmax (purified protein [2]): 44 µM/min/mg | kcat (purified protein [2]): 0.712 ± 0.0477 s⁻¹ | kcat/Km (purified protein [2]): 217 ± 38.3 M⁻¹ s⁻¹
